CN111690058A (SANYOU BIO INC; SHANGHAI ZJ BIO TECH CO LTD, dated 2020)

Key:
[1] = biological target: T1, S蛋白RBD-His (319Arg-532Asn) (2019-nCoV (SARS-CoV-2), UniProt P0DTC2 319-532); test: BLI (Fortebio), RBD-His on Anti-Penta-HIS sensor, antibody in solution
[2] = biological target: T1, S蛋白RBD-His (319Arg-532Asn)

B1: 候选抗体P16-A3 (全长人IgG1, κ轻链) (antibody, V domains shown)
VH: QVQLVESGGGVVQPGRSLRLSCAASGFTFSSYGMHWVRQAPGKGLEWVAVISYDGSNKYYADSVKGRFTISRDNSKNTLYLQMNSLRAEDTAVYYCARAYSSSWLLQSFYYYGMDVWGQGTTVTVSS
VL: NIQLTQSPVSLSASVGDRVTLTCRASQGIGYSLVWYQKKPGTAPKLLIFDASTLQSGVPSRFSGSGSGTDFTLTISSLQPEDSATYYCQQVIHYPLTFGGGTKVEIK
B1 gave a Kd [1] of 0.415 nM, a koff [1] of 7.17e-05 s⁻¹ and a kon [1] of 173000 M⁻¹ s⁻¹. The IC50 [2] was 7.7 nM.
